One data set relates to hTERT-HMEC. Briefly: percentage of EdU-negative (G0-arrested) nuclei per well, 72 h; higher = more G0 arrest. Particulars: reference: sequence is the full UniProt precursor, the tested protein was the secreted form or ectodomain.
The test system of the next data set is MCF7. The description is as above. The following applies: reference: sequence is the full UniProt precursor, the tested protein was the secreted form or ectodomain.
The mark [1] stands for this setting: protein concentration 0.0225 µM.
Setting [2] is: protein concentration 0.0191429 µM.
The mark [3] stands for this setting: protein concentration 0.191429 µM.
Setting [4] is: protein concentration 0.03125 µM.
[5] abbreviates: protein concentration 0.3125 µM.
The mark [6] stands for this setting: protein concentration 0.01925 µM.
The mark [7] stands for this setting: protein concentration 0.1925 µM.
[8] abbreviates: protein concentration 0.0157525 µM.
Where [9] appears, read: protein concentration 0.157525 µM.

± gives the standard deviation of the averaged measurements.
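Also: secreted proteins added to cultured cells, EdU pulse at the end, nuclei found by Hoechst imaging, EdU status from nuclear versus surrounding ring intensity ratio, PBS as neutral control.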

As for “MRPQGPAASPQRLRGLLLLLLLQLPAPSSASEIPKGKQKAQLRQREVVDLYNGMCLQGPAGVPGRDGSPGANGIPGTPGIPGRDGFKGEKGECLRESFEESWTPNYKQCSWSSLNYGIDLGKIAECTFTKMRSNSALRVLFSGSLRLKCRNACCQRWYFTFNGAECSGPLPIEAIIYLDQGSPEMNSTINIHRTSSVEGLCEGIGAGLVDVAIWVGTCSDYPKGDASTGWNSVSRIIIEELPK [Q96CG8]”, the “percentage of EdU-negative” value came out at 5.305 ± 0.023% with hTERT-HMEC (setting [1]), 4.81 ± 1.6% in the data set on hTERT-HMEC (protein concentration 0.225 µM), 25.9 ± 1.8% in the data set with MCF7 (setting [1]) and 22.2 ± 3.5% with MCF7 (protein concentration 0.225 µM).

For the sequence “MRPRLWLLLAAQLTVLHGNSVLQQTPAYIKVQTNKMVMLSCEAKISLSNMRIYWLRQRQAPSSDSHHEFLALWDSAKGTIHGEEVEQEKIAVFRDASRFILNLTSVKPEDSGIYFCMIVGSPELTFGKGTQLSVVDFLPTTAQPTKKSTLKKRVCRLPRPETQKGPLCSPITLGLLVAGVLVLLVSLGVAIHLCCRRRRARLRFMKQFYK”, the “percentage of EdU-negative” value in the data set on hTERT-HMEC (setting [2]) came out at 5.15 ± 0.17%; in the data set with hTERT-HMEC (setting [3]), 4.67 ± 0.05%; in the data set with MCF7 (setting [2]) it was 27.8 ± 0.56%; with MCF7 (setting [3]), 28.7 ± 0.39%.

With “MRPTLLWSLLLLLGVFAAAAAAPPDPLSQLPAPQHPKIRLYNAEQVLSWEPVALSNSTRPVVYQVQFKYTDSKWFTADIMSIGVNCTQITATECDFTAASPSAGFPMDFNVTLRLRAELGALHSAWVTMPWFQHYRNVTVGPPENIEVTPGEGSLIIRFSSPFDIADTSTAFFCYYVHYWEKGGIQQVKGPFRSNSISLDNLKPSRVYCLQVQAQLLWNKSNIFRVGHLSNISCYETMADASTELQQVILISVGTFSLLSVLAGACFFLVLKYRGLIKYWFHTPPSIPLQIEEYLKDPTQPILEALDKDSSPKDDVWDSVSIISFPEKEQEDVLQTL”, the “percentage of EdU-negative” value with hTERT-HMEC (setting [4]) was 5.59 ± 1.2%; in the data set on hTERT-HMEC (setting [5]), 6.09 ± 0.44%; in the data set on MCF7 (setting [4]), 27.1 ± 3%; in the data set with MCF7 (setting [5]), 24.6 ± 0.62%.

With “MRPVSVWQWSPWGLLLCLLCSSCLGSPSPSTGPEKKAGSQGLRFRLAGFPRKPYEGRVEIQRAGEWGTICDDDFTLQAAHILCRELGFTEATGWTHSAKYGPGTGRIWLDNLSCSGTEQSVTECASRGWGNSDCTHDEDAGVICKDQRLPGFSDSNVIEVEHHLQVEEVRIRPAVGWGRRPLPVTEGLVEVRLPDGWSQVCDKGWSAHNSHVVCGMLGFPSEKRVNAAFYRLLAQRQQHSFGLHGVACVGTEAHLSLCSLEFYRANDTARCPGGGPAVVSCVPGPVYAASSGQKKQQQSKPQGEARVRLKGGAHPGEGRVEVLKASTWGTVCDRKWDLHAASVVCRELGFGSAREALSGARMGQGMGAIHLSEVRCSGQELSLWKCPHKNITAEDCSHSQDAGVRCNLPYTGAETRIRLSGGRSQHEGRVEVQIGGPGPLRWGLICGDDWGTLEAMVACRQLGLGYANHGLQETWYWDSGNITEVVMSGVRCTGTELSLDQCAHHGTHITCKRTGTRFTAGVICSETASDLLLHSALVQETAYIEDRPLHMLYCAAEENCLASSARSANWPYGHRRLLRFSSQIHNLGRADFRPKAGRHSWVWHECHGHYHSMDIFTHYDILTPNGTKVAEGHKASFCLEDTECQEDVSKRYECANFGEQGITVGCWDLYRHDIDCQWIDITDVKPGNYILQVVINPNFEVAESDFTNNAMKCNCKYDGHRIWVHNCHIGDAFSEEANRRFERYPGQTSNQII”, the “percentage of EdU-negative” value amounted to 4.9 ± 0.65% in the data set on hTERT-HMEC (setting [6]), 39.2 ± 1.2% in the data set with hTERT-HMEC (setting [7]), 25.3 ± 1.3% in the data set on MCF7 (setting [6]) and 31.5 ± 2.3% in the data set with MCF7 (setting [7]).

Turning to “MRQVCCSALPPPPLEKGRCSSYSDSSSSSSERSSSSSSSSSESGSSSRSSSNNSSISRPAAPPEPRPQQQPQPRSPAARRAAARSRAAAAGGMRRDPAPGFSMLLFGVSLACYSPSLKSVQDQAYKAPVVVEGKVQGLVPAGGSSSNSTREPPASGRVALVKVLDKWPLRSGGLQREQVISVGSCVPLERNQRYIFFLEPTEQPLVFKTAFAPLDTNGKNLKKEVGKILCTDCATRPKLKKMKSQTGQVGEKQSLKCEAAAGNPQPSYRWFKDGKELNRSRDIRIKYGNGRKNSRLQFNKVKVEDAGEYVCEAENILGKDTVRGRLYVNSVSTTLSSWSGHARKCNETAKSYCVNGGVCYYIEGINQLSCKCPNGFFGQRCLEKLPLRLYMPDPKQKAEELYQKRVLTITGICVALLVVGIVCVVAYCKTKKQRKQMHNHLRQNMCPAHQNRSLANGPSHPRLDPEEIQMADYISKNVPATDHVIRRETETTFSGSHSCSPSHHCSTATPTSSHRHESHTWSLERSESLTSDSQSGIMLSSVGTSKCNSPACVEARARRAAAYNLEERRRATAPPYHDSVDSLRDSPHSERYVSALTTPARLSPVDFHYSLATQVPTFEITSPNSAHAVSLPPAAPISYRLAEQQPLLRHPAPPGPGPGPGPGPGPGADMQRSYDSYYYPAAGPGPRRGTCALGGSLGSLPASPFRIPEDDEYETTQECAPPPPPRPRARGASRRTSAGPRRWRRSRLNGLAAQRARAARDSLSLSSGSGGGSASASDDDADDADGALAAESTPFLGLRGAHDALRSDSPPLCPAADSRTYYSLDSHSTRASSRHSRGPPPRAKQDSAPL”, the “percentage of EdU-negative” value came out at 4.61 ± 0.33% in the data set on hTERT-HMEC (setting [8]), 5.33 ± 1% in the data set with hTERT-HMEC (setting [9]), 24.9 ± 0.53% in the data set on MCF7 (setting [8]) and 26.5 ± 0.38% in the data set on MCF7 (setting [9]).

As for “MRRASRDYTKYLRGSEEMGGGPGAPHEGPLHAPPPPAPHQPPAASRSMFVALLGLGLGQVVCSVALFFYFRAQMDPNRISEDGTHCIYRILRLHENADFQDTTLESQDTKLIPDSCRRIKQAFQGAVQKELQHIVGSQHIRAEKAMVDGSWLDLAKRSKLEAQPFAHLTINATDIPSGSHKVSLSSWYHDRGWAKISNMTFSNGKLIVNQDGFYYLYANICFRHHETSGDLATEYLQLMVYVTKTSIKIPSSHTLMKGGSTKYWSGNSEFHFYSINVGGFFKLRSGEEISIEVSNPSLLDPDQDATYFGAFKVRDID”, the “percentage of EdU-negative” value in the data set with hTERT-HMEC (setting [1]) stood at 4.57 ± 0.17%; in the data set with hTERT-HMEC (protein concentration 0.225 µM) it was 5.25 ± 0.66%; in the data set with MCF7 (setting [1]), 28.6 ± 1.4%; in the data set on MCF7 (protein concentration 0.225 µM), 25.6 ± 1.6%.

Consider “MRRLLIPLALWLGAVGVGVAELTEAQRRGLQVALEEFHKHPPVQWAFQETSVESAVDTPFPAGIFVRLEFKLQQTSCRKRDWKKPECKVRPNGRKRKCLACIKLGSEDKVLGRLVHCPIETQVLREAEEHQETQCLRVQRAGEDPHSFYFPGQFAFSKALPRS”, for which the “percentage of EdU-negative” value in the data set on hTERT-HMEC (setting [1]) is 4.71 ± 0.87%; with hTERT-HMEC (protein concentration 0.225 µM), 5.88 ± 0.56%; with MCF7 (setting [1]), 27.7 ± 0.92%; in the data set with MCF7 (protein concentration 0.225 µM) it was 26.6 ± 2.6%.

For the sequence “MRRLLLVTSLVVVLLWEAGAVPAPKVPIKMQVKHWPSEQDPEKAWGARVVEPPEKDDQLVVLFPVQKPKLLTTEEKPRGQGRGPILPGTKAWMETEDTLGHVLSPEPDHDSLYHPPPEEDQGEERPRLWVMPNHQVLLGPEEDQDHIYHPQ [Q96NZ9]”, the “percentage of EdU-negative” value in the data set with hTERT-HMEC (protein concentration 0.013 µM) amounted to 4.69 ± 0.15%; in the data set with hTERT-HMEC (protein concentration 0.13 µM) it was 5.48 ± 0.53%; in the data set with MCF7 (protein concentration 0.013 µM), 23.14 ± 0.14%; with MCF7 (protein concentration 0.13 µM) it was 27.38 ± 0.25%.

Source of the values: the supplement of paper PMC11316812.
